# In paper PMC10973503:
# Biological target: α-synuclein (α-syn) 1-140 (UniProt P37840)
# Assay: WT-PFF-seeded ThT fibrillation kinetics, NS-TEM
# Settings: reference: unmodified WT monomer plus WT PFF; sites S87
substance,measurement,value
α-synuclein (α-syn) 1-140 (from UniProt P37840) pS87 monomer plus WT PFF,binding against the reference,weaker
